Earlier results, collected in paper PMC3733499 (Thrombosis and haemostasis, 2013).

Key:
[1] = target: prothrombinase (FXa/FVa/PL) (Homo sapiens, UniProt P00742+P12259); details: only in the presence of FVa; ref [19]; cited from earlier work
[2] = system: FXa binding to FVa; details: ref [19]; cited from earlier work
[3] = target: T1, FVa (Homo sapiens, UniProt P07225); details: ref [19]; cited from earlier work
T1 sequence (P07225 42-676): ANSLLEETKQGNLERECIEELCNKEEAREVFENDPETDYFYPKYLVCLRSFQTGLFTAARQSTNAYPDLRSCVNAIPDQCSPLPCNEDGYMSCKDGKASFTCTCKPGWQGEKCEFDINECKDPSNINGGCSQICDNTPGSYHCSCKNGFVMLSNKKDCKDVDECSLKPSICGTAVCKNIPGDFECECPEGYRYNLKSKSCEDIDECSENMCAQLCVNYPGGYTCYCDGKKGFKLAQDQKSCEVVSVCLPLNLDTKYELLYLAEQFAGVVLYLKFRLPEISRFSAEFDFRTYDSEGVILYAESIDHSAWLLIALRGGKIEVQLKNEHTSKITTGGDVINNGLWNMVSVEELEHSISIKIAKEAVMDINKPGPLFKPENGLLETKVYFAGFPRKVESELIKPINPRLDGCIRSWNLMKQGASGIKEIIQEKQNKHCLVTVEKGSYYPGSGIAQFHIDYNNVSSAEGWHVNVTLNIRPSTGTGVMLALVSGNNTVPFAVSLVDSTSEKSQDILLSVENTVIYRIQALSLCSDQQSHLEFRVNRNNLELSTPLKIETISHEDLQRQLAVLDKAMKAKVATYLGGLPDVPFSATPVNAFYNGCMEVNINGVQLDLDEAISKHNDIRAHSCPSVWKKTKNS

prothrombinase (FXa/FVa/PL), sequence (P12259 29-737 limits assumed): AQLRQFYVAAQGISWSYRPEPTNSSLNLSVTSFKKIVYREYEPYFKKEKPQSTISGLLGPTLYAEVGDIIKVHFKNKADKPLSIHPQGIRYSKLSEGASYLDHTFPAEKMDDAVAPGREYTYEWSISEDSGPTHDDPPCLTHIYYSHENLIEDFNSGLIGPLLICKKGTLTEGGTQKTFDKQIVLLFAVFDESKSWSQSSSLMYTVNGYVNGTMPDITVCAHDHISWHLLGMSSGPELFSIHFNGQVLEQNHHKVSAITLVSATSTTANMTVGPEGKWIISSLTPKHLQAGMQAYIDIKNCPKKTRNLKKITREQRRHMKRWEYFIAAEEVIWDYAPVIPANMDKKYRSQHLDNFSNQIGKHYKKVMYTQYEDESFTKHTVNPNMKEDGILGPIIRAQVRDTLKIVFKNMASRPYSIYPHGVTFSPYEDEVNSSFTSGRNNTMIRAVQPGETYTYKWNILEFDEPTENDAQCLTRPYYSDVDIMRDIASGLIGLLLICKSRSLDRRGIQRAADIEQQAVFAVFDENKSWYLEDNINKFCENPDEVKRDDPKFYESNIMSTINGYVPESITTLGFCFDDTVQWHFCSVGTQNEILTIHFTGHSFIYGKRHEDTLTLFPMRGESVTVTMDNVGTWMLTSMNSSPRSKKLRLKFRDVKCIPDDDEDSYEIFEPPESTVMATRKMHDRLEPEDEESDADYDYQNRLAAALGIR
prothrombinase (FXa/FVa/PL), sequence (P12259 1574-2224 limits assumed): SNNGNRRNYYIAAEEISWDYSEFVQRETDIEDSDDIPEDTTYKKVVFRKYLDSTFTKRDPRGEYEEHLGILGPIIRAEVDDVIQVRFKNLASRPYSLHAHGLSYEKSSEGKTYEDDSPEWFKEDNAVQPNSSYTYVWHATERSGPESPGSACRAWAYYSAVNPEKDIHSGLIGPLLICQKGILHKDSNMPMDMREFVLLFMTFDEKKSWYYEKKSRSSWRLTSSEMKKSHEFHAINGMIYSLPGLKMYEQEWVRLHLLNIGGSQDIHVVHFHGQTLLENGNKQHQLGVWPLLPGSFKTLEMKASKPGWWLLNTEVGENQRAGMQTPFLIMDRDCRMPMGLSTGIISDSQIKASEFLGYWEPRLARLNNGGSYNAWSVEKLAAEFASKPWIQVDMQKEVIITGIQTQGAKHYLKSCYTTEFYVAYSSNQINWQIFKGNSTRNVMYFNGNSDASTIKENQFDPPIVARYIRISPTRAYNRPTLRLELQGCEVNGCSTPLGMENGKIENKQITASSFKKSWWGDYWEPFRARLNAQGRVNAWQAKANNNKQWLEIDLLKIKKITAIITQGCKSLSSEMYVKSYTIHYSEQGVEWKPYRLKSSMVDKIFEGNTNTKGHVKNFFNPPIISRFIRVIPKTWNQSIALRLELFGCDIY
prothrombinase (FXa/FVa/PL), sequence (P00742 41-179 partner limits assumed): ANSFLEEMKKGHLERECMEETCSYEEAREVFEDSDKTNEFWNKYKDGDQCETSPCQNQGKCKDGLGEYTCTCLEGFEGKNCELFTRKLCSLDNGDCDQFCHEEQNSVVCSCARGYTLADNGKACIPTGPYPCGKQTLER
prothrombinase (FXa/FVa/PL), sequence (P00742 235-488 partner limits assumed): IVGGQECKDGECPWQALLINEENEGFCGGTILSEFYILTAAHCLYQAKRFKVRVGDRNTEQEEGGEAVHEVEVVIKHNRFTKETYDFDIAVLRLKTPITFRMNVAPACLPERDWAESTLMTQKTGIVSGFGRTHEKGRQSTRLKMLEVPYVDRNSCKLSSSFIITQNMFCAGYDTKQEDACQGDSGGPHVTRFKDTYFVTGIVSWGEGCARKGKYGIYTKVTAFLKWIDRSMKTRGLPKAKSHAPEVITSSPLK

621–635 peptide: peptide representing PS residues 621–635 near the C-terminus (RAHSCPSVWKKTKNS; UniProt P07225 662-676, looked up, fragment)
Inhibition of prothrombinase activity [1]: inhibited prothrombinase activity only in the presence of FVa
Competition with FXa for a binding site on FVa [2]: appeared to compete with FXa for a binding site on FVa
Inhibition of PS binding to FVa [3]: inhibited PS binding to FVa
